53 sequences from the supplement of paper PMC12764529 can be followed below.

± gives the half width of the 95% confidence interval.

The data set in a line: folding stability dG unfold (combined trypsin and chymotrypsin); higher = more stable. As to the method:
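Folding stability of de novo designed mini-proteins (<80 aa, no Cys; designed by TrROS, TrMRF, ProteinMPNN and the joint model) was measured by cDNA display proteolysis with trypsin and chymotrypsin. Each protease was used at 11 concentrations in a threefold dilution series plus a no-protease condition. K50 was inferred by Bayesian fitting of sequencing counts, and dG unfold was derived against a sequence-predicted unfolded-state K50 (Tsuboyama et al. method). Sequences shown include variable-length N-terminal GS-type padding (SAGGSAGG...) inside a display construct carrying a PA tag. Rows were kept only if the AF2 dimer inter-PAE was >15, to exclude likely homo-oligomers.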
For the sequence “SAGGSAGGSAMEEYEIRVPDKPITIHRSPDGNYSLQYFDNKKTETIPADDLDDLPPGDLFRSAGGSAGGSAG [r3_256_TrROS]”, the “folding stability dG unfold” value is less than -1 kcal/mol.
Take “SAGGSAGGSAMWVRDIADELRKEGKPVKIEMRNPNGKEKEYTIKPGEPLPPGWDIEKIEYKSAGGSAGGSAG [r3_421_TrROS]”: the “folding stability dG unfold” value is less than -1 kcal/mol.
For “SAGGSAGGSANKDDKKKEQRKQRVESKLPIYDPGNGKPWDIEVTGPVDDPEDAVDWLLDWFSAGGSAGGSAG [r3_271_TrROS]”, the “folding stability dG unfold” value was less than -1 kcal/mol.
Take “SAGGSAGGSANPMPVRFQIEWKNPKDGKKQKIPITGTIPDGNGKKHSINELLKNLPGFKIKPSAGGSAGGSA [r18_267_TrROS]”: the “folding stability dG unfold” value is less than -1 kcal/mol.
The figure for “SAGGSAGGSANVEVHPNPDGHVMVKIEMRMYRYDPDGKPKGPVEIKRSIHVDSPEEAKEFFSAGGSAGGSAG [r3_232_TrROS]” is less than -1 kcal/mol.
The figure for “SAGGSAGGSAPGQKFPIKEVYWNDGRLAIKVEDNGEEQIIPVGAKIEDDDDGEIKIKLLPPPSAGGSAGGSA [r18_468_TrROS]” is less than -1 kcal/mol; for “SAGGSAGGSAPLVENPVPLYVPEEEAVPLAEEIRKKLTKGGLKKIVFEVVPPEEAGIPPDEPLSAGGSAGGS [r12_93_JUSTAS]” it is less than -1 kcal/mol.
As for “SAGGSAGGSAPNQRREVPFYIYFPDDGKMFPFKQEKDPDPPKLKLKLPPEDFPPIEIMPGGSAGGSAGGSAG [r3_454_TrROS]”, the “folding stability dG unfold” value is less than -1 kcal/mol.
The figure for “SAGGSAGGSARVTVTPLPDDRVAVSVERTLYRRDADGNPLGPVRIQASVVVDSLEDAAELASAGGSAGGSAG [r3_232_TrMRF]” is less than -1 kcal/mol.
For “SAGGSAGGSASPVQRILARLPSGEPFEAVYDPSTGTIDVLGEGKPSTIPAGTPVEVLEVRLESAGGSAGGSA [r18_144_JUSTAS]”, the “folding stability dG unfold” value is less than -1 kcal/mol.
As for “SAGGSAGGSAVIVIPASVVEEKKEKIELKLEDETEYEVEVTTEKVGDEPIAVLKLIPKNIPSSAGGSAGGSA [r18_447_JUSTAS]”, the “folding stability dG unfold” value is less than -1 kcal/mol.
For the sequence “SAGGSAGGSAVVTLPDGRLLITEKVEEEVVFPDRDRTSKRVTTKTTLIDPATGTVLPASLLSAGGSAGGSAG [r3_394_JUSTAS]”, the “folding stability dG unfold” value is less than -1 kcal/mol.
Turning to “SAGGSAGGSDINVRVIELPDEDGTPYLLLEADNPEGLSDEIAAAFPPDWDVRTDDDRVWVLRRSAGGSAGGS [r20_189_TrMRF]”, the “folding stability dG unfold” value was less than -1 kcal/mol.
On to “SAGGSAGGSEGKEVVVVPAVGVPPEAVRRALEPLGIRTRVVPVPPVRPFRAADPGRVYYTPVGSAGGSAGGS [r12_80_TrMRF]”, for which the “folding stability dG unfold” value is less than -1 kcal/mol.
On to “SAGGSAGGSEMKIDRIKIHDFDPDNGNYFVRIRNNGGPKHTFPVKNADELKEHLPGVKVEVIKSAGGSAGGS [r12_403_TrROS]”, for which the “folding stability dG unfold” value was less than -1 kcal/mol.
With “SAGGSAGGSEPVPLKVKARFGDPGEEFEADIDIPKEALEGEALTPEQIKEALEALFPDVEIEGSAGGSAGGS [r20_221_TrMRF]”, the “folding stability dG unfold” value is less than -1 kcal/mol.
As for “SAGGSAGGSGAFTADNDGGKVYSARLVPLPPGDRPVAVGLDVPVDKPVLVAVLPDRTVVVPLGSAGGSAGGS [r12_994_TrMRF]”, the “folding stability dG unfold” value is less than -1 kcal/mol.
In the case of “SAGGSAGGSGFTVLEKDPSTGKVLVRLPPSLVEDVRRLPDVSPVAEEPDSVLLERTIPPGALASAGGSAGGS [r12_694_JUSTAS]”, the “folding stability dG unfold” value was less than -1 kcal/mol.
Consider “SAGGSAGGSGMTVEERTSPDGTRVEVYLGPGSVVREESPEGVVTVRTLTDGRVEREEVVPVPASAGGSAGGS [r12_451_JUSTAS]”, for which the “folding stability dG unfold” value is less than -1 kcal/mol.
For the sequence “SAGGSAGGSGPRAEELVVVNAPPGYRIPTPDGVPVTVPADAPNVLVRVTYGPGSSSVTVELVQSAGGSAGGS [r12_338_JUSTAS]”, the “folding stability dG unfold” value is less than -1 kcal/mol.
The figure for “SAGGSAGGSGSPSRPSPVLKFTFPKDPKPVTVPIPSGDPAAAAAAAAALEAAHPDTPVAVEAASAGGSAGGS [r12_601_JUSTAS]” is less than -1 kcal/mol; for “SAGGSAGGSGVKAILDALPPDYTVTVEEEPSGDSYTITVTHPDGASPTLRIDGGGRGELRKALSAGGSAGGS [r12_174_TrMRF]” it is -0.845 ± 0.74 kcal/mol.
Turning to “SAGGSAGGSKDILANFPPGWKIEEEPNPNGMTRIDIKNPNGNEHRMEFPVNGKPIKFTIKPPESAGGSAGGS [r20_50_TrROS]”, the “folding stability dG unfold” value was less than -1 kcal/mol.
Consider “SAGGSAGGSLSLSSNPLVTDPETGEVVYPAVADPVGIATAQWPDSTSYTPMPPNVTRVVRPGEASAGGSAGG [r6_627_JUSTAS]”, for which the “folding stability dG unfold” value was less than -1 kcal/mol.
On to “SAGGSAGGSLTIPLPDGGTLTVVEEDEEEVLVEERKPNPGGSSPATFTRTIRRPPPVLPPKLVSAGGSAGGS [r12_959_JUSTAS]”, for which the “folding stability dG unfold” value was less than -1 kcal/mol.
For the sequence “SAGGSAGGSMEITVTLPPDQTAEDAIAALPSEYKNVTVLETSTTFPPTTDETPTVTLTIKVTKSAGGSAGGS [r12_822_JUSTAS]”, the “folding stability dG unfold” value was less than -1 kcal/mol.
Regarding “SAGGSAGGSMFMVKINNGKEIPIPPEDLPPGETVEELADNIPPGMRNIEIYNWDGEEQEIPIDSAGGSAGGS [r20_161_TrROS]”, the “folding stability dG unfold” value was less than -1 kcal/mol.
For the sequence “SAGGSAGGSMTPEKIKKIRKRMEERGYQIPSIETNPGNGMPFININPPDPEMREKDPELRELISAGGSAGGS [r12_482_TrROS]”, the “folding stability dG unfold” value was less than -1 kcal/mol.
Turning to “SAGGSAGGSNWTIKVNIVEKPNGKKYIPITMRPPNGNTREGPMPADEIKDRFGMPAEDIAKAISAGGSAGGS [r20_235_TrROS]”, the “folding stability dG unfold” value was less than -1 kcal/mol.
Turning to “SAGGSAGGSPAFTVPREVKVGDKPVTVEVDGEGRVTIRTPEGGSESEPVGSPGPAPVAFRITLKSAGGSAGG [r6_241_JUSTAS]”, the “folding stability dG unfold” value was less than -1 kcal/mol.
Take “SAGGSAGGSPIMVRVERRDKDGKKKPVPTIPIPINNDDPEEALEWANEIAKKAGARDVRVEIWSAGGSAGGS [r12_569_TrROS]”: the “folding stability dG unfold” value is less than -1 kcal/mol.
Take “SAGGSAGGSPVDEIIEEIKKKGYKANVKSVSVSPNSKGELEIELEINIEKPEPKGTEENIKKKSAGGSAGGS [r12_120_JUSTAS]”: the “folding stability dG unfold” value was less than -1 kcal/mol.
For the sequence “SAGGSAGGSSPSDTVTAELRYVLPDGTPVERTLSLTDLPSSVTPEDTLTLPGPGLRARILAVTGSAGGSAGG [r6_561_JUSTAS]”, the “folding stability dG unfold” value was less than -1 kcal/mol.
Regarding “SAGGSAGGSTIMIPPGMPPEEAKAWARDIAREQGFPPGRDLNVEVEPQPFDGGPWYTIDIEWDSAGGSAGGS [r12_252_TrROS]”, the “folding stability dG unfold” value was less than -1 kcal/mol.
On to “SAGGSAGGSTWEEVKKKAKEAGPELDFEPSPEGEKKFKIVAPKDKPEAVEALAKEYNVELEIESAGGSAGGS [r12_74_TrMRF]”, for which the “folding stability dG unfold” value was less than -1 kcal/mol.
As for “SAGGSAGGSVKDKNGTPYSVKEAKEKKLPNGTLVIELTLPESGKKITIPKKDIPKGISSEAKLKSAGGSAGG [r6_371_JUSTAS]”, the “folding stability dG unfold” value was less than -1 kcal/mol.
Regarding “SAGGSAGGSVVIPESVISNMKEEEIRELIKKNPKPVLLVTENPEVRKKAEEIFKKEGYPLVVGSAGGSAGGS [r12_97_TrMRF]”, the “folding stability dG unfold” value is less than -1 kcal/mol.
For the sequence “SAGGSAGGSVVPPEEEETVEKKETLTDPVTGKEYLSRRRVTYRPSKPEKVAEEEEIIPPDEPLSAGGSAGGS [r12_868_JUSTAS]”, the “folding stability dG unfold” value is less than -1 kcal/mol.
As for “SAGGSAGGSVYYDESEDGVFVRVEGDGAPRVFPVADPEEARYRRIPTPDGRPVRVELRPSEEGSAGGSAGGS [r12_730_TrMRF]”, the “folding stability dG unfold” value was less than -1 kcal/mol.
The figure for “SAGGSAGGVEVEADPEYEVEVFEDPETGAVVAIVKGPDEVERALRFIPETGEPVELPLEEFEPLSAGGSAGG [r6_304_TrMRF]” is less than -1 kcal/mol; for “SAGGSAGSSSVSTVTPVGDYVVVTVNAPEGSVVTITDPATGTTETRAAPAGATFTVPPNASVSVTNSAGGSA [r15_418_JUSTAS]” it is less than -1 kcal/mol; for “SAGGSALKPGQPVMIHVRLKIERPDPDGDEKKIPEIHIPVPVEEAKDIAEALPPNYKVKIDDISIMSAGGSA [r15_833_TrROS]” it is less than -1 kcal/mol.
In the case of “SAGGSAMKFYIKYDPKKEKTILILPENNPDLEGNDGSKVIKVENEEELIKLIEEAKKKGIKKIEIKSAGGSA [r15_1004_TrMRF]”, the “folding stability dG unfold” value is less than -1 kcal/mol.
Consider “SAGGSAMKYTLKDKDGKTITIEVEEHENPDGEPWYEVDIEHPNDGKEKKVYMPPNNPEEFAKKFLKSAGGSA [r15_92_TrROS]”, for which the “folding stability dG unfold” value was less than -1 kcal/mol.
“SAGGSAPIKITIHWDPENGMYRIKGKTPDGPVEYPFPRDELRNMPIENFADELNYEIKDVEIEPYPSAGGSA [r15_801_TrROS]”: the “folding stability dG unfold” value is less than -1 kcal/mol.
The figure for “SAGGSAPKRRIEIYPNPNGMYRIKVSNPDGKKREHTIDGPGMPLEQLANKLNIPPGFKIDEIEPYPSAGGSA [r15_167_TrROS]” is less than -1 kcal/mol.
As to “SAGGSAPPLTEVTLTEVSTDPETGTTTLTLEASGPVESVPLEFPDGRSVKAERLPDGTLVVTNPGASAGGSA [r15_736_JUSTAS]”, the “folding stability dG unfold” value was less than -1 kcal/mol.
Consider “SAGGSASPDTRLVRIELKSNVPGTGIEVTETVPLVELEPDEPAEAVAEEVRAAHPVDEVTVTVDPASAGGSA [r15_540_JUSTAS]”, for which the “folding stability dG unfold” value is less than -1 kcal/mol.
“SAGGSASSMVSSLPLKVDPKEKARAEAEKLAEEKLEEEPDLEGTVEVELEMETPDKKIKVRLEIKKSAGGSA [r15_729_JUSTAS]”: the “folding stability dG unfold” value was less than -1 kcal/mol.
As for “SAGGSATIEEILKEIAEPHGAEPEVDPNSGVIEVDFPNGQEHTINVDDGKPIKIKYNPPGRMYIEISAGGSA [r15_256_TrROS]”, the “folding stability dG unfold” value is less than -1 kcal/mol.
The figure for “SAGGSAYITIDDIKKLGPNMPIMVEPPKGRLMIFSPNQMVKITIDPDDDTIKVKEVFDSPEAMEKLSAGGSA [r15_6_TrROS]” is less than -1 kcal/mol; for “SAGGSEPFTPEDLIRKALPVKPKAVVIPGPVSEEEIKALLDAGIPVVIIGKDGSRAVAVGDEVKPLSAGGSA [r2_33_TrMRF]” it is less than -1 kcal/mol; for “SAGGSEVFVLPNGAVAVVEPDPDGVRVARVPGLPGVAVRYPPATRRWVLVTVDPRKGGPRTFTLTGSAGGSA [r2_477_TrMRF]” it is less than -1 kcal/mol.
